Measured values: the supplement of paper PMC12855868

B1: library; numbered along this chain (parent)
chain: MAAAGGARLLRAASAVLGGPAGRWLHHAGSRAGSSGLLRNRGPGGSAEASRSLSVSARARSSSEDKITVHFINRDGETLTTKGKVGDSLLDVVVENNLDIDGFGACEGTLACSTCHLIFEDHIYEKLDAITDEENDMLDLAYGLTDRSRLGCQICLTKSMDNMTVRVPETVADARQSIDVGKTS

Variants of: B1
Assay: scaled log2 fold change in cell abundance, elesclomol vs control (0 = silent mean, 1 = nonsense mean) (scaled log2 ratio); higher = higher viability under elesclomol (loss of FDX1 cuproptosis function)
Settings: glucose 10 mM
[1] = with ABC1 FDX1 KO, elesclomol 5 nM, 14 days
[2] = with HEK293T FDX1 KO, elesclomol 40 nM, 11 days
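Note: variant abundance is its share of total variant reads in each endpoint sample, from next-generation sequencing of the integrated ORF PCR-amplified out of genomic DNA.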

Variant	scaled log2 fold change [1]	scaled log2 fold change [2]
R147P	0.35	-0.0221
R147S	-0.721	-0.596
R147F	0.104	-0.384
R147D	0.339	0.314
R147T	-0.344	-0.0355
R147A	0.283	
R147W	0.275	-0.126
R147V	0.177	0.544
R147M	0.167	-0.232
R147E	0.159	-0.255
R147Y	0.159	0.243
R147I	0.215	-0.172
R147Q	0.0113	-0.0201
R147G	-0.409	0.00185
R147C	-0.148	0.356
R147L	-1.37	-0.851
R147N	0.171	0.904
R147H	-0.0226	-0.215
R147K	-0.354	-0.267
T145H	-0.157	-0.272
T145W	0.478	-0.147
T145I	0.244	-0.228
T145E	-0.0343	-0.344
T145K	-0.0518	-0.472

Variant	scaled log2 fold change [1]	scaled log2 fold change [2]
T145V	0.027	-0.443
T145L	0.169	0.152
T145M	0.318	-0.375
T145Q	0.226	-1.28
T145C	-0.124	-0.351
T145G	0.132	1.06
T145D	-0.00306	-0.25
T145S	0.00135	
T145R	0.0604	-0.726
T145F	-0.258	-0.0341
T145Y	0.224	0.0425
T145N	0.291	-0.855
T145A	-0.6	0.187
T145P	0.209	-0.123
Y142F	0.0438	0.876
Y142V	-0.226	-0.606
Y142K	0.0326	
Y142E	-0.1	-0.695
Y142M	-0.877	-0.0122
Y142G	-0.302	-0.393
Y142W	-0.245	0.733
Y142R	0.172	-1.11
Y142S	-0.293	-1.45
Y142P	-1.37	

Variant	scaled log2 fold change [1]	scaled log2 fold change [2]
Y142L	-0.24	-0.251
Y142T	-0.197	0.583
Y142Q	-0.102	-0.021
Y142I	-0.441	
Y142N	-0.329	
Y142H	-0.0863	0.947
G143F	-0.335	0.343
G143H	-0.162	-0.302
G143Q	-0.167	0.225
G143P	0.108	-0.153
G143T	0.153	-1.08
G143S	-0.338	0.106
G143C	-0.043	0.0676
G143W	-0.202	-0.602
G143I	-0.102	-0.507
G143M	0.337	-0.813
G143R	0.384	-1.11
G143K	-1.13	0.329
G143L	-0.0816	0.114
G143V	0.0102	-0.395
G143A	0.189	1
G143Y	0.0128	0.695
G143N	-0.705	0.0112
G143E	-0.312	-0.391

Variant	scaled log2 fold change [1]	scaled log2 fold change [2]
G143D	0.242	0.59
S148F	0.404	0.537
S148E	0.489	1.23
S148C	0.0537	0.319
S148H	0.322	-0.35
S148D	0.488	0.491
S148A	-0.395	0.0871
S148G	-0.0749	-0.519
D146R	-0.0353	
D146W	0.114	0.978
D146Q	-0.0405	-0.462
D146V	-0.227	-0.76
D146A	0.0826	-0.539
D146T	0.301	-0.841
D146L	0.0782	-0.302
D146G	-0.311	0.974
D146I	-0.109	0.0633
D146Y	0.1	0.0545
D146M	-0.332	
D146H	-0.228	-0.639
D146C	0.0801	0.758
D146K	0.0568	-0.151
D146S	-0.00471	0.0302
D146E	0.138	0.321

Variant	scaled log2 fold change [1]	scaled log2 fold change [2]
D146N	-0.093	0.538
D146F	-0.0311	0.866
D146P	-0.219	0.177
L144R	0.343	0.505
L144K	0.175	-0.503
L144P	0.386	0.307
L144E	0.116	0.0837
L144Y	-1.21	-0.239
L144T	0.135	-0.511
L144Q	0.137	-1.45
L144D	0.171	-0.877
L144N	0.342	-0.655
L144W	-0.112	-0.217
L144F	-0.293	1.23
L144I	0.399	-0.124
L144S	-0.409	0.564
L144H	-0.0895	-0.335
L144M	0.249	-0.887
L144G	-0.079	-0.323
L144V	-0.402	-0.057
L144A	0.157	-0.304
L144C	0.106	-0.265
